The source of these data is patent US20150299281A1 (ZEALAND PHARMA A S, published 2015).

One assay deals with T1, human GIP receptor (human, UniProt P48546 22-466).
T1 sequence (looked up): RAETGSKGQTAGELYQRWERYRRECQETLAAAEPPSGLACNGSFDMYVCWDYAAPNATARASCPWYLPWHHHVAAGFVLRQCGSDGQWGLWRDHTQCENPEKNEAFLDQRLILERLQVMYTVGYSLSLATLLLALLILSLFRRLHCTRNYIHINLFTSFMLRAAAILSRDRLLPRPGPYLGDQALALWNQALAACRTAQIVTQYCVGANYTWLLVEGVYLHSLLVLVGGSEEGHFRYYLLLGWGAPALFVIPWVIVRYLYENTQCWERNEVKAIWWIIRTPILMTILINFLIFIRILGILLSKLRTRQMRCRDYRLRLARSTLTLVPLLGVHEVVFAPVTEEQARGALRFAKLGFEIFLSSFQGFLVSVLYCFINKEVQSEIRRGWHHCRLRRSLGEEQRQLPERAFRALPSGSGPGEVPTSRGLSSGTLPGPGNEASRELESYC
As to the kind of experiment: cell-based or functional assay.

A further assay deals with human GLP-1 receptor (human, UniProt P43220 24-463). Description: cell-based or functional assay.

Square brackets hold non-standard residues; d marks the D form. 1Nal = N[C@@H](Cc1cccc2ccccc12)C(=O)O; Aib = CC(C)(N)C(=O)O

B1: Compound 20 (peptide)
peptide: H-Y[Aib]EGTFTSDYSIYLDKKAQRAFVKWLLA[Aib]K-NH2
SMILES: CC[C@H](C)[C@H](NC(=O)[C@H](CO)NC(=O)[C@H](Cc1ccc(O)cc1)NC(=O)[C@H](CC(=O)O)NC(=O)[C@H](CO)NC(=O)[C@@H](NC(=O)[C@H](Cc1ccccc1)NC(=O)[C@@H](NC(=O)CNC(=O)[C@H](CCC(=O)O)NC(=O)C(C)(C)NC(=O)[C@@H](N)Cc1ccc(O)cc1)[C@@H](C)O)[C@@H](C)O)C(=O)N[C@@H](Cc1ccc(O)cc1)C(=O)N[C@@H](CC(C)C)C(=O)N[C@@H](CC(=O)O)C(=O)N[C@@H](CCCCN)C(=O)N[C@@H](CCCCN)C(=O)N[C@@H](C)C(=O)N[C@@H](CCC(N)=O)C(=O)N[C@@H](CCCNC(=N)N)C(=O)N[C@@H](C)C(=O)N[C@@H](Cc1ccccc1)C(=O)N[C@H](C(=O)N[C@@H](CCCCN)C(=O)N[C@@H](Cc1c[nH]c2ccccc12)C(=O)N[C@@H](CC(C)C)C(=O)N[C@@H](CC(C)C)C(=O)N[C@@H](C)C(=O)NC(C)(C)C(=O)N[C@@H](CCCCN)C(N)=O)C(C)C
Regarding B1, the “EC50, cAMP induction in HEK293 cells expressing human GIP R” value with human GIP receptor worked out at 0.049 nM. The “EC50, cAMP induction in HEK293 cells expressing human GLP-1 R” value with human GLP-1 receptor turned out to be 0.009 nM.

B2: Compound 21 (peptide)
peptide: H-Y[Aib]EGTFTSDYSIYLDKKAQRAFVNWLVA[Aib]K-NH2
SMILES: CC[C@H](C)[C@H](NC(=O)[C@H](CO)NC(=O)[C@H](Cc1ccc(O)cc1)NC(=O)[C@H](CC(=O)O)NC(=O)[C@H](CO)NC(=O)[C@@H](NC(=O)[C@H](Cc1ccccc1)NC(=O)[C@@H](NC(=O)CNC(=O)[C@H](CCC(=O)O)NC(=O)C(C)(C)NC(=O)[C@@H](N)Cc1ccc(O)cc1)[C@@H](C)O)[C@@H](C)O)C(=O)N[C@@H](Cc1ccc(O)cc1)C(=O)N[C@@H](CC(C)C)C(=O)N[C@@H](CC(=O)O)C(=O)N[C@@H](CCCCN)C(=O)N[C@@H](CCCCN)C(=O)N[C@@H](C)C(=O)N[C@@H](CCC(N)=O)C(=O)N[C@@H](CCCNC(=N)N)C(=O)N[C@@H](C)C(=O)N[C@@H](Cc1ccccc1)C(=O)N[C@H](C(=O)N[C@@H](CC(N)=O)C(=O)N[C@@H](Cc1c[nH]c2ccccc12)C(=O)N[C@@H](CC(C)C)C(=O)N[C@H](C(=O)N[C@@H](C)C(=O)NC(C)(C)C(=O)N[C@@H](CCCCN)C(N)=O)C(C)C)C(C)C
With B2, the “EC50, cAMP induction in HEK293 cells expressing human GIP R” value with human GIP receptor is 0.08 nM. Besides, the “EC50, cAMP induction in HEK293 cells expressing human GLP-1 R” value with human GLP-1 receptor came to 0.009 nM.

B3: Compound 23 (peptide)
peptide: H-Y[Aib]EGTFTSDYSIYLDKKAQRAFVNWLKA[Aib]K-NH2
SMILES: CC[C@H](C)[C@H](NC(=O)[C@H](CO)NC(=O)[C@H](Cc1ccc(O)cc1)NC(=O)[C@H](CC(=O)O)NC(=O)[C@H](CO)NC(=O)[C@@H](NC(=O)[C@H](Cc1ccccc1)NC(=O)[C@@H](NC(=O)CNC(=O)[C@H](CCC(=O)O)NC(=O)C(C)(C)NC(=O)[C@@H](N)Cc1ccc(O)cc1)[C@@H](C)O)[C@@H](C)O)C(=O)N[C@@H](Cc1ccc(O)cc1)C(=O)N[C@@H](CC(C)C)C(=O)N[C@@H](CC(=O)O)C(=O)N[C@@H](CCCCN)C(=O)N[C@@H](CCCCN)C(=O)N[C@@H](C)C(=O)N[C@@H](CCC(N)=O)C(=O)N[C@@H](CCCNC(=N)N)C(=O)N[C@@H](C)C(=O)N[C@@H](Cc1ccccc1)C(=O)N[C@H](C(=O)N[C@@H](CC(N)=O)C(=O)N[C@@H](Cc1c[nH]c2ccccc12)C(=O)N[C@@H](CC(C)C)C(=O)N[C@@H](CCCCN)C(=O)N[C@@H](C)C(=O)NC(C)(C)C(=O)N[C@@H](CCCCN)C(N)=O)C(C)C
As for B3, in the assay with human GIP receptor, the “EC50, cAMP induction in HEK293 cells expressing human GIP R” value was found to be 0.42 nM. Further, the “EC50, cAMP induction in HEK293 cells expressing human GLP-1 R” value with human GLP-1 receptor stood at 0.012 nM.

B4: Compound 24 (peptide)
peptide: H-Y[Aib]EGTFTSDYSIYLDKKAQRAFVNWLL[Aib]K-NH2
SMILES: CC[C@H](C)[C@H](NC(=O)[C@H](CO)NC(=O)[C@H](Cc1ccc(O)cc1)NC(=O)[C@H](CC(=O)O)NC(=O)[C@H](CO)NC(=O)[C@@H](NC(=O)[C@H](Cc1ccccc1)NC(=O)[C@@H](NC(=O)CNC(=O)[C@H](CCC(=O)O)NC(=O)C(C)(C)NC(=O)[C@@H](N)Cc1ccc(O)cc1)[C@@H](C)O)[C@@H](C)O)C(=O)N[C@@H](Cc1ccc(O)cc1)C(=O)N[C@@H](CC(C)C)C(=O)N[C@@H](CC(=O)O)C(=O)N[C@@H](CCCCN)C(=O)N[C@@H](CCCCN)C(=O)N[C@@H](C)C(=O)N[C@@H](CCC(N)=O)C(=O)N[C@@H](CCCNC(=N)N)C(=O)N[C@@H](C)C(=O)N[C@@H](Cc1ccccc1)C(=O)N[C@H](C(=O)N[C@@H](CC(N)=O)C(=O)N[C@@H](Cc1c[nH]c2ccccc12)C(=O)N[C@@H](CC(C)C)C(=O)N[C@@H](CC(C)C)C(=O)NC(C)(C)C(=O)N[C@@H](CCCCN)C(N)=O)C(C)C
As for B4, the “EC50, cAMP induction in HEK293 cells expressing human GIP R” value in the assay with human GIP receptor was determined as 0.096 nM. The “EC50, cAMP induction in HEK293 cells expressing human GLP-1 R” value with human GLP-1 receptor turned out to be 0.0085 nM.

B5: Compound 25 (peptide)
peptide: H-Y[Aib]EGTFTSDYSIYLDKKAQRAFVNWLLA[Aib]KYG[1Nal]LDF-NH2
SMILES: CC[C@H](C)[C@H](NC(=O)[C@H](CO)NC(=O)[C@H](Cc1ccc(O)cc1)NC(=O)[C@H](CC(=O)O)NC(=O)[C@H](CO)NC(=O)[C@@H](NC(=O)[C@H](Cc1ccccc1)NC(=O)[C@@H](NC(=O)CNC(=O)[C@H](CCC(=O)O)NC(=O)C(C)(C)NC(=O)[C@@H](N)Cc1ccc(O)cc1)[C@@H](C)O)[C@@H](C)O)C(=O)N[C@@H](Cc1ccc(O)cc1)C(=O)N[C@@H](CC(C)C)C(=O)N[C@@H](CC(=O)O)C(=O)N[C@@H](CCCCN)C(=O)N[C@@H](CCCCN)C(=O)N[C@@H](C)C(=O)N[C@@H](CCC(N)=O)C(=O)N[C@@H](CCCNC(=N)N)C(=O)N[C@@H](C)C(=O)N[C@@H](Cc1ccccc1)C(=O)N[C@H](C(=O)N[C@@H](CC(N)=O)C(=O)N[C@@H](Cc1c[nH]c2ccccc12)C(=O)N[C@@H](CC(C)C)C(=O)N[C@@H](CC(C)C)C(=O)N[C@@H](C)C(=O)NC(C)(C)C(=O)N[C@@H](CCCCN)C(=O)N[C@@H](Cc1ccc(O)cc1)C(=O)NCC(=O)N[C@@H](Cc1cccc2ccccc12)C(=O)N[C@@H](CC(C)C)C(=O)N[C@@H](CC(=O)O)C(=O)N[C@@H](Cc1ccccc1)C(N)=O)C(C)C
As to B5, the “EC50, cAMP induction in HEK293 cells expressing human GIP R” value with human GIP receptor amounted to 0.12 nM. Further, the “EC50, cAMP induction in HEK293 cells expressing human GLP-1 R” value in the assay with human GLP-1 receptor was 0.041 nM.

B6: Compound 19 (peptide)
peptide: H-Y[Aib]EGTFTSDYSIYLDKKAQKEFVNWLLA[Aib]K-NH2
SMILES: CC[C@H](C)[C@H](NC(=O)[C@H](CO)NC(=O)[C@H](Cc1ccc(O)cc1)NC(=O)[C@H](CC(=O)O)NC(=O)[C@H](CO)NC(=O)[C@@H](NC(=O)[C@H](Cc1ccccc1)NC(=O)[C@@H](NC(=O)CNC(=O)[C@H](CCC(=O)O)NC(=O)C(C)(C)NC(=O)[C@@H](N)Cc1ccc(O)cc1)[C@@H](C)O)[C@@H](C)O)C(=O)N[C@@H](Cc1ccc(O)cc1)C(=O)N[C@@H](CC(C)C)C(=O)N[C@@H](CC(=O)O)C(=O)N[C@@H](CCCCN)C(=O)N[C@@H](CCCCN)C(=O)N[C@@H](C)C(=O)N[C@@H](CCC(N)=O)C(=O)N[C@@H](CCCCN)C(=O)N[C@@H](CCC(=O)O)C(=O)N[C@@H](Cc1ccccc1)C(=O)N[C@H](C(=O)N[C@@H](CC(N)=O)C(=O)N[C@@H](Cc1c[nH]c2ccccc12)C(=O)N[C@@H](CC(C)C)C(=O)N[C@@H](CC(C)C)C(=O)N[C@@H](C)C(=O)NC(C)(C)C(=O)N[C@@H](CCCCN)C(N)=O)C(C)C
For the molecule B6, in the assay with human GIP receptor, the “EC50, cAMP induction in HEK293 cells expressing human GIP R” value was 0.015 nM. Also, the “EC50, cAMP induction in HEK293 cells expressing human GLP-1 R” value with human GLP-1 receptor worked out at 0.0073 nM.

B7: Compound 26 (peptide)
peptide: H-Y[Aib]EGTFTSDYSIYLDKKAQRAFVNWLLAYG[1Nal]LDF-NH2
SMILES: CC[C@H](C)[C@H](NC(=O)[C@H](CO)NC(=O)[C@H](Cc1ccc(O)cc1)NC(=O)[C@H](CC(=O)O)NC(=O)[C@H](CO)NC(=O)[C@@H](NC(=O)[C@H](Cc1ccccc1)NC(=O)[C@@H](NC(=O)CNC(=O)[C@H](CCC(=O)O)NC(=O)C(C)(C)NC(=O)[C@@H](N)Cc1ccc(O)cc1)[C@@H](C)O)[C@@H](C)O)C(=O)N[C@@H](Cc1ccc(O)cc1)C(=O)N[C@@H](CC(C)C)C(=O)N[C@@H](CC(=O)O)C(=O)N[C@@H](CCCCN)C(=O)N[C@@H](CCCCN)C(=O)N[C@@H](C)C(=O)N[C@@H](CCC(N)=O)C(=O)N[C@@H](CCCNC(=N)N)C(=O)N[C@@H](C)C(=O)N[C@@H](Cc1ccccc1)C(=O)N[C@H](C(=O)N[C@@H](CC(N)=O)C(=O)N[C@@H](Cc1c[nH]c2ccccc12)C(=O)N[C@@H](CC(C)C)C(=O)N[C@@H](CC(C)C)C(=O)N[C@@H](C)C(=O)N[C@@H](Cc1ccc(O)cc1)C(=O)NCC(=O)N[C@@H](Cc1cccc2ccccc12)C(=O)N[C@@H](CC(C)C)C(=O)N[C@@H](CC(=O)O)C(=O)N[C@@H](Cc1ccccc1)C(N)=O)C(C)C
Take B7: the “EC50, cAMP induction in HEK293 cells expressing human GIP R” value with human GIP receptor is 0.8 nM. Besides, the “EC50, cAMP induction in HEK293 cells expressing human GLP-1 R” value with human GLP-1 receptor is 0.39 nM.
